In patent US20120301393A1, “MODIFIED UBIQUITIN PROTEINS HAVING A SPECIFIC BINDING ACTIVITY FOR THE EXTRADOMAIN B OF FIBRONECTIN” (Scil Proteins GmbH, priority 2009, published 2012):
“Also recorded” adds a separate entry of the source.

How the values were obtained:
[1] = target: T1, Human fibronectin lacking the ED-B domain (h6789) (Homo sapiens, UniProt P02751); test: concentration dependent ELISA, negative control fibronectin fragment without ED-B; assay type: binding
T1 construct: fibronectin fragment 6789 without ED-B

[2] = target: immobilized ED-B containing fibronectin fragment (67B89) (Homo sapiens, UniProt P02751); test: competitive concentration dependent ELISA; assay type: binding; details: in the presence of increasing amounts of free target
Method: Competitive concentration dependent ELISAs analyzed the binding of ubiquitin variant 1041-D11 to immobilized ED-B containing fibronectin fragment […] in the presence of increasing amounts of free target. Conditions of the ELISA were as described for Example 5A, except that 1041-D11 protein was preincubated with ED-B (67B89) (0 μM-10 μM) or also with negative control 6789 (0 μM-10 μM) for 1 h and subsequently the mixture was given to the target 67B89 that was placed on a Medisorp-plate; following this, the variant was detected by the corresponding antibody (anti-Ubiquitin-Fab-POD; dilution 1:6500).

ED-B (67B89) = ED-B (67B89) (Homo sapiens, UniProt P02751); test: concentration dependent ELISA analyzing serum-stability of binding activity; details: 1 h at 37° C. in mouse or rat serum
Method: The ELISA is performed using procedures well known in the art and as described above (Example 5A and 5B). ED-B (here referred to as 67B89) is coated to microtiter plates, the variant is bound to ED-B and detected by a specific ubiquitin-antibody (Anti-Ubi-Fab-POD). The variant in this assay is treated in different ways: the variant is incubated in mouse serum for 1 h at 37° C. (see in FIG. 13, circles in blue); the variant is incubated in rat serum for 1 h at 37° C. (in FIG. 13, circles in red); or the variant is incubated PBS for 1 h at 37° C. (in FIG. 13, circles in black).

[3] = target: ED-B containing fibronectin fragment (67B89) (Homo sapiens, UniProt P02751); test: label-free interaction assay using Biacore; assay type: binding; details: 1:1-Langmuir-fitting
Method: Different concentrations of the variant were analyzed (for example, 0-200 nM of the variant, preferably 1041-D11) for binding to an ED-B containing fibronectin fragment (referred to as 67B89) immobilized on a CM5-chip (Biacore) using methods known to those skilled in the art. The obtained data were processed via the BIAevaluation software and 1:1-Langmuir-fitting. The kinetic binding constants were kon=7.6*10^5 M^−1 s^−1; koff=7.7*10^−4 s^−1. […]

[4] = target: fibronectin fragment 67B89 (soluble ED-B) (Homo sapiens, UniProt P02751); test: complex-formation analysis by SE-HPLC with 67B89; assay type: binding; details: 0.72 nmol each, 1 h RT
Method: (§1) For the analysis of complex formation, Tricorn Superdex 75 5/150 GL columns (GE-Healthcare) (V=3 ml) was used, protein amount of 50 μl was applied. Further conditions: buffer: 1×PBS, pH 7.3, flow-rate: 0.3 ml/min, run: 45 min (injection of sample: after 15 min). Condition: 0.72 nmol 1041-D11 protein+0.72 nmol ED-B (herein referred to 67B89 or also as a negative control 6789) incubated for 1 h at RT; then applied to column for analysis of complex-formation. In FIG. 14, only the variant is shown in black, only the target ED-B is shown in blue, the variant binding building a complex with ED-B in pink.

[5] = target: T2, ED-B free fibronectin fragment 6789 (Homo sapiens, UniProt P02751); test: complex-formation analysis by SE-HPLC with 6789; assay type: binding; details: 0.72 nmol each, 1 h RT
T2 construct: fibronectin fragment 6789 without ED-B
Method: as §1

[6] = tested on: human fetal lung fibroblast cells (Wi38); test: binding to cell culture cells, Wi38; assay type: cell-based; details: immunofluorescence
Method: (§2) The binding of, for example, variant 1041-D11 to cell culture cells was tested. Different cell culture cells were analysed, including normal human fetal lung fibroblast cells having high expression levels of ED-B (Wi38 cells), a mouse embryonic fibroblast cell line (Balb 3T3); a stromal cell line, derived from mouse bone marrow (ST-2) monocytes/macrophages (RAW 264.7), NHDF cells and murine fibroblast cells (LM).
The negative control cell type NHDF are primary normal fibroblast cells, which express low levels of EDB-fibronectin (data not shown).
The negative control cell type NHDF is primary normal fibroblast cells, which express low levels of EDB-fibronectin. The cells were plated in chamber-slides (NUNC, 60000 cells/ml). To analyses the binding potential the cells were fixed with 100% MeOH for 5 min at −20° C. To block unspecific binding, the cells were incubated with 5% Horse-serum 1 h 37° C. The cells were tested with the variant 1041-D11, an ED-B specific antibody FV28 CH4/F1 as positive control or UB—2 as negative control with different concentrations 1 h RT. The proving occurred about an incubation with rabbit-a-Strep-Tag-IgG (obtained from GenScript A00875, 1:500) for 1 h and incubation with a-rabbit-IgG*Alexa488-AK (obtained from Invitrogen A11008, 1:1000) for 1 h. The nuclei were stained with DAPI. […] The first 2 lines show the variant and positive control on Wi38-cell line.

murine Balb 3T3-cells = test: binding to cell culture cells, Balb 3T3; assay type: cell-based; details: 1, 10, 50 nM
Method: as §2
(§3) Similar experiments were performed using different cells types, for example Balb3T3 (ATCC, Kat-Nr. 30-2002), Raw (Lonza, Kat-Nr. BE12-115F/U1), ST-2 (Lonza, Kat-Nr. BE12-115F/U1).

murine ST-2-cells = test: binding to cell culture cells, ST-2; assay type: cell-based; details: 1, 10, 50 nM
Method: as §2, §3

[7] = tested on: monocytes/macrophages (RAW 264.7); test: binding to cell culture cells, Raw; assay type: cell-based; details: data not shown
Method: as §2, §3

[8] = target: T3, ED-B in F9 tumor vasculature (Mus musculus, UniProt P11276); test: immunohistochemistry on F9 tumor tissue sections; parameters: species or system mice; details: seven samples
T3 construct: 1041-D11 specifically decorates the vasculature in tissue sections from F9 tumors; from tissue; host or cells: F9 tumor tissue sections from mice
Method: F9 tumor tissues from seven samples were evaluated. […] ED-B is a highly specific marker for tumor vasculature. The target protein EDB is located on the abluminal side of the vessels. 1041-D11 specifically decorates the vasculature in tissue sections from F9 tumors. […] Thus, fusion proteins based on modified ubiquitin specifically binding to ED-B are suitable an ED-B based targeted therapy for cancer.

[9] = tissue panel staining (48 tissues, FDA relevant panel)
L929 cells = test: L929 apoptosis assay (TNFα activity); assay type: cell-based; details: actinomycinD sensitized L929 cells, 48 h; listed as free cytokine; read-out: EC50 value, corresponding TNFα (free cytokine) tested in parallel
Method: The physiological TNFα-activity of TNFα-modified ubiquitin based ED-B binding fusions has been determined using the L929 apoptosis assay (Flick et al., 1984 J. Immunol. Methods. 68:167-175). In this assay, TNF-alpha efficiently stimulates cell death in actinomycinD sensitized cells at EC50 values in the picomolar range.
Cells have been resuspended in medium containing FBS and antibiotics. A cell suspension of 100 μl of a densitiy of 3.5×10^5 cells/ml has been seeded into the wells of a 96 well standard cell culture plate followed by over night incubation in a humidified CO2 incubator. Thereafter, the culture medium has been removed and 50 μl of medium containing FBS, ActinomycinD and antibiotics has been added to each well followed by a further 30 min incubation time. Thereafter, 50 μl of the test items, TNFα-modified ubiquitin based ED-B binding-fusions or the human recombinant TNFαcontrol, at an appropriate concentration range of between 10^−7 and 10^−18 M, have been added. After a further 48 h incubation time the metabolic activity as a measure of cell survival was determined using WST-1 reagent (Roche).
Per test item at least three independent experiments have been conducted, each of them in triplicates. […]
The quantitative evaluation is based on the EC50-value, i.e. the value according to the test item concentration promoting the survival of half of the cells.

Chain of ED-B containing fibronectin fragment (67B89) (P02751 32-2477): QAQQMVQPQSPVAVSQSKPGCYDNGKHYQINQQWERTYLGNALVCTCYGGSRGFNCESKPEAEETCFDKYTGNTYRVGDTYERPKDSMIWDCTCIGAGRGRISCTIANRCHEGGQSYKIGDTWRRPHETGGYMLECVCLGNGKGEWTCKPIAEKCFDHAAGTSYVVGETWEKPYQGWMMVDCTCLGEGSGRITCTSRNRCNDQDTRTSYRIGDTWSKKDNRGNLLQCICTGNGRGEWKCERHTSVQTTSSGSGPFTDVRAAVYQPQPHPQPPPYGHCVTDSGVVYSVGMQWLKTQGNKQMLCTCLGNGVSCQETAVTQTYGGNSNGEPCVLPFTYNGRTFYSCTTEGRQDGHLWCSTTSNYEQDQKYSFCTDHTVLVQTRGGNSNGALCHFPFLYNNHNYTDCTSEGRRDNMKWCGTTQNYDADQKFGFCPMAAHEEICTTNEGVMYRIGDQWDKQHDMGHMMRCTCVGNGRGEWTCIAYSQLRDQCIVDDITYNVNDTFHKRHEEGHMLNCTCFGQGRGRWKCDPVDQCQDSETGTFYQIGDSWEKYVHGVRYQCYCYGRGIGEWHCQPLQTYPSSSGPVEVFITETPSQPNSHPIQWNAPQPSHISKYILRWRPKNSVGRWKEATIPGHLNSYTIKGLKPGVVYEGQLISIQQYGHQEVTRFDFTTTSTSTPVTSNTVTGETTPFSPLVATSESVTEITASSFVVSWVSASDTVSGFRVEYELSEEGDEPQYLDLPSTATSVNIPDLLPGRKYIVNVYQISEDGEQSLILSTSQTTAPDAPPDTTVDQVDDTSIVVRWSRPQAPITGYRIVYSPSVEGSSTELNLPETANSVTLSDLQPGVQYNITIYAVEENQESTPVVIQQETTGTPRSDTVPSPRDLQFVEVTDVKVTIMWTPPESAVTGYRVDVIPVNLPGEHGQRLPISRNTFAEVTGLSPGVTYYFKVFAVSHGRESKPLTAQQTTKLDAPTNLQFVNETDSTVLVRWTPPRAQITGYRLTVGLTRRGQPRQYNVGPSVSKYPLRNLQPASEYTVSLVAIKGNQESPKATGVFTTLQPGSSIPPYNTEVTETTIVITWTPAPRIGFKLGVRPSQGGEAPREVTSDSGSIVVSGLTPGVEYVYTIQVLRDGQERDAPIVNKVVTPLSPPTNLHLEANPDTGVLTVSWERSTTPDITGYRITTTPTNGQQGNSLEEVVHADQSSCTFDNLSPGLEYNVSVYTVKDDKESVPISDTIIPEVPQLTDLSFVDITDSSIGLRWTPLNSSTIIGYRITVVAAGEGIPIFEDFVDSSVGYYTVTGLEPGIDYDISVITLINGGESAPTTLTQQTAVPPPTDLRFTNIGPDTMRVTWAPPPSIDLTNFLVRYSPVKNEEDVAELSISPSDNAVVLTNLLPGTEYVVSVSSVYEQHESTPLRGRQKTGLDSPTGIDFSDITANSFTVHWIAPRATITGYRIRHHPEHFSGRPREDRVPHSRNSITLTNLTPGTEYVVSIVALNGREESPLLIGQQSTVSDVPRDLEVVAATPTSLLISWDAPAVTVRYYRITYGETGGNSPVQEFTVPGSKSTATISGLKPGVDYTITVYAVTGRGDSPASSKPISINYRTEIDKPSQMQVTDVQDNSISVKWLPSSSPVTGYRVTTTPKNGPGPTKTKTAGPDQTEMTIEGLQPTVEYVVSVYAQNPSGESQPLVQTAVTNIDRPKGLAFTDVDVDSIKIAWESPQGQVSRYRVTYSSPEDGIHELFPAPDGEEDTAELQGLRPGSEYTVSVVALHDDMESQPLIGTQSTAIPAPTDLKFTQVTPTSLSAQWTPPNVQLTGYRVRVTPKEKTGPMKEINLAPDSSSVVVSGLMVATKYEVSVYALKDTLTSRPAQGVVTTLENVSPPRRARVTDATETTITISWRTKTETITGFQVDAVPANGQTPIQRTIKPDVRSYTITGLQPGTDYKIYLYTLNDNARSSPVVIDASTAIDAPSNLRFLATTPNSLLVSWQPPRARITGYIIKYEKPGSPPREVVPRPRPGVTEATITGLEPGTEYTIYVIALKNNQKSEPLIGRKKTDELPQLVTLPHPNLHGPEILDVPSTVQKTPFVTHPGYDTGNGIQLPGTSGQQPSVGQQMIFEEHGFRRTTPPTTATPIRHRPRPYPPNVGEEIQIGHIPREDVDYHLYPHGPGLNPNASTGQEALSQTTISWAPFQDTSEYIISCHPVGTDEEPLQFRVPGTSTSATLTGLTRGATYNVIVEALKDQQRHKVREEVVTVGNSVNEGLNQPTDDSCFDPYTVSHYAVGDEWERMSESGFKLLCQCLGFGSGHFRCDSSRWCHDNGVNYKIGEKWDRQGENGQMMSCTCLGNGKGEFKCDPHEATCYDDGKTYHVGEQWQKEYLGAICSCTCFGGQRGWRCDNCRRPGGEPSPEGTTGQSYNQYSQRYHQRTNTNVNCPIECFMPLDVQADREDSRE
Chain of fibronectin fragment 67B89 (soluble ED-B) (P02751 32-2477): as above
T2 sequence (P02751 1089-1449 isoform P02751-1): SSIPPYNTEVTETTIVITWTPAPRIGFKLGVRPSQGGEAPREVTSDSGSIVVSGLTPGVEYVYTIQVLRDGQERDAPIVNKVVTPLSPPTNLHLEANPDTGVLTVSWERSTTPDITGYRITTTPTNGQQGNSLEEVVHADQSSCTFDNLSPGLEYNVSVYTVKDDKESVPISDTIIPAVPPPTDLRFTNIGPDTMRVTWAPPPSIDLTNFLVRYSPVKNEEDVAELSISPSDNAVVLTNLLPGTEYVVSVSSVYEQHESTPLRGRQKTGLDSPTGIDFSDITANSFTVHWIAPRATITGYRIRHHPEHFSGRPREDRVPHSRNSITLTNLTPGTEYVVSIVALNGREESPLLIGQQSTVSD
Chain of immobilized ED-B containing fibronectin fragment (67B89) (P02751 32-2477): as the sequence (P02751 32-2477) above
Chain of ED-B (67B89) (P02751 32-2477): as above
T1 sequence (P02751 1089-1449 isoform P02751-1 limits assumed): as the sequence (P02751 1089-1449 isoform P02751-1) above

Row | Substance | binding to negative control fibronectin fragment without ED-B (6789) [1] | IC50 [2] [nM] | influence of blood serum on binding to ED-B (ED-B (67B89)) | koff [3] [s⁻¹] | kon [3] [M⁻¹ s⁻¹] | complex formation with 67B89 [4] | complex formation with 6789 [5] | binding to vital Wi38 cells [6] | binding to fixed Wi38 cells ([6]; 58.7 nM and 587 nM) | binding to fixed murine Balb 3T3-cells (murine Balb 3T3-cells) | binding to fixed murine ST-2-cells (murine ST-2-cells) | binding to monocytes/macrophages (Raw) [7] | staining of F9 tumor tissue sections [8] | unspecific staining in 48 tissues of FDA relevant panel [9] | EC50 (L929 cells) [nM]
1 | 1041-D11: hetero-dimeric ubiquitin variant: K6W, L8W, K63R, E64K, S65F, T66P; second module Q2R, K6T, L8Q, Q62W, K63S, E64N, S65W, T66E | no binding | 140 | not significantly influenced | 0.00077 | 760000 | formation of a complex; also recorded: builds a complex | no significant binding; also recorded: builds no complex | binds to vital Wi38 cells with high specificity | binds to fixed Wi38 cells with high specificity | binds to murine Balb 3T3 cells with high specificity | binds to murine Balb ST-2 cells with high specificity | No binding | ED-B specific vascular staining | no unspecific staining | 
2 | TNFα [reference compound] |  |  |  |  |  |  |  |  |  |  |  |  |  |  | 0.00314 ± 0.00359
